Results: PMC11549432 (Nature Communications, 2024)
Like-named read-outs stand apart in the source and are kept apart here.

B1: LpxA wild type (UDP-N-acetylglucosamine acyltransferase), purified (enzyme, E. coli, UniProt P0A722 1-262, looked up)
chain: MIDKSAFVHPTAIVEEGASIGANAHIGPFCIVGPHVEIGEGTVLKSHVVVNGHTKIGRDNEIYQFASIGEVNQDLKYAGEPTRVEIGDRNRIRESVTIHRGTVQGGGLTKVGSDNLLMINAHIAHDCTVGNRCILANNATLAGHVSVDDFAIIGGMTAVHQFCIIGAHVMVGGCSGVAQDVPPYVIAQGNHATPFGVNIEGLKRRGFSREAITAIRNAYKLIYRSGKTLDEVKPEIAELAETYPEVKAFTDFFARSTRGLIR

Experiments:
[1] = target: ObgE (Obg of E. coli), wild type, N-terminally His6-tagged, purified (E. coli) (UniProt P42641); assay: MST
[2] = target: ObgE (Obg of E. coli), wild type, N-terminally His6-tagged, purified (E. coli) (UniProt P42641); assay: MST; remark: listed apart in the source
[3] = target: ObgE (Obg of E. coli), wild type, N-terminally His6-tagged, purified (E. coli) (UniProt P42641); assay: MST; remark: listed apart in the source
SEC-MALS = target: the molecule itself; assay: SEC-MALS

Chain of ObgE (Obg of E. coli), wild type, N-terminally His6-tagged, purified (E. coli) (P42641 whole entry): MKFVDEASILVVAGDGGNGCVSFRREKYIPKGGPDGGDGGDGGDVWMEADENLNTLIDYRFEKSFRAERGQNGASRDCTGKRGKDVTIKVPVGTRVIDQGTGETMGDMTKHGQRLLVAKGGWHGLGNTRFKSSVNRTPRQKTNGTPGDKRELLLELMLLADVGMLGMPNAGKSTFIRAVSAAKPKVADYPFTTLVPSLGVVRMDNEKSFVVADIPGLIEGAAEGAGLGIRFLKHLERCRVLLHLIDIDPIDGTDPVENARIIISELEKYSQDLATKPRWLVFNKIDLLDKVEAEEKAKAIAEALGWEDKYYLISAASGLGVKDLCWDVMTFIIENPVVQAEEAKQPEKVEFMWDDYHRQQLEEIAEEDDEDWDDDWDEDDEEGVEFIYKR

Row | Molecule | Kd [1] [µM] | Kd [2] [µM] | Kd [3] [µM] | stoichiometry N (SEC-MALS)
1 | LpxA wild type (UDP-N-acetylglucosamine acyltransferase), purified (from UniProt P0A722 1-262) (enzyme) | 47 | 99 | 78 | 
2 | B1 |  |  |  | 3
